Reference: patent US20200087416A1
Values belong to the substance of their own block, whether it stands above or below them.

How the values were obtained:
[1] = molecular target: human PCSK9 (PCSK9 antigen, SEQ ID NO. 53) (human); test: MSD-SET, Fab with biotin-PCSK9 in solution, IgG on plate, pH 7.4
[2] = molecular target: cynomolgus PCSK-9 (cynomolgus); test: as above
[3] = molecular target: murine PCSK-9 (murine) (UniProt Q80W65); test: as above
[4] = molecular target: human PCSK9 (PCSK9 antigen, SEQ ID NO. 53) (human); test: MSD-SET, Fab with biotin-PCSK9 in solution, IgG on plate, pH 6.0
[5] = molecular target: cynomolgus PCSK-9 (cynomolgus); test: BLI (ForteBio), IgG on AHQ sensor, 100 nM antigen
[6] = molecular target: human PCSK9 (PCSK9 antigen, SEQ ID NO. 53) (human); test: flow cytometry, PCSK9 left on CHO-LDLR cells (anti-His-FITC) after premix with 0.1 nM control IgG
[7] = molecular target: human PCSK9 (PCSK9 antigen, SEQ ID NO. 53) (human); test: flow cytometry, PCSK9 left on CHO-LDLR cells (anti-His-FITC) after premix with 1000 nM control IgG
[8] = molecular target: human PCSK9 (PCSK9 antigen, SEQ ID NO. 53) (human); test: cell-based or functional assay
[9] = molecular target: human PCSK9 (PCSK9 antigen, SEQ ID NO. 53) (human); test: flow cytometry, PCSK9 left on CHO-LDLR cells (anti-His-FITC) after premix with 100 nM control IgG
[10] = molecular target: human PCSK9 (PCSK9 antigen, SEQ ID NO. 53) (human); test: flow cytometry, PCSK9 left on CHO-LDLR cells (anti-His-FITC) after premix with 10 nM control IgG
[11] = molecular target: human PCSK9 (PCSK9 antigen, SEQ ID NO. 53) (human); test: flow cytometry, PCSK9 left on CHO-LDLR cells (anti-His-FITC) after premix with 1 nM control IgG

Substance: Alirocumab Fab
Kd [1]: 0.072 nM
Kd [2]: 0.082 nM
Kd [3]: 0.3 nM
Kd [4]: 0.051 nM

Substance: Evolocumab (antibody)
Kd [5]: 1.3 nM

Substance: Bococizumab (antibody)
Kd [5]: 0.476 nM

Substance: IgG (negative control) (antibody)
Fluorescence Signal Value [6]: 7000
Fluorescence Signal Value [7]: 8920
BODIPY-LDL uptake by HepG2 cells, fluorescence, 4.2 nM, replicate 1 [8]: 0.358
BODIPY-LDL uptake by HepG2 cells, fluorescence, 4.2 nM, replicate 2 [8]: 0.325
BODIPY-LDL uptake by HepG2 cells, fluorescence, 16.8 nM, replicate 1 [8]: 0.297
BODIPY-LDL uptake by HepG2 cells, fluorescence, 16.8 nM, replicate 2 [8]: 0.309
BODIPY-LDL uptake by HepG2 cells, fluorescence, 66.7 nM, replicate 1 [8]: 0.329
BODIPY-LDL uptake by HepG2 cells, fluorescence, 66.7 nM, replicate 2 [8]: 0.288
Fluorescence Signal Value [9]: 7520
Fluorescence Signal Value [10]: 6960
Fluorescence Signal Value [11]: 6730

The next lines start with the values.

Kd [1]: 0.016 nM
Kd [2]: 0.0082 nM
Substance: Evolocumab Fab

Kd [5]: 0.383 nM
Substance: Alirocumab (antibody)
